Measured values: US20250381289A1 (Genmab, published 2025)

What was measured:
[1] = biological target: T1, cMET on EGFR and cMET co-expressed tumor cell lines (UniProt P08581 25-1390, limits assumed); assay: flow cytometry on CAL-27 cells (co-express EGFR and cMET), PE anti-human Fc; signal of the whole bispecific, not resolved by arm
T1 construct: whole, on cells

[2] = biological target: T2, EGFR on EGFR and cMET co-expressed tumor cell lines (UniProt P00533 25-1210, limits assumed); assay: flow cytometry, A431 cells (co-express EGFR and cMET; both arms contribute)
T2 construct: whole, on cells

[3] = biological target: T1, cMET on EGFR and cMET co-expressed …; assay: as above
Target sequence in this assay (P08581 25-1390 limits assumed): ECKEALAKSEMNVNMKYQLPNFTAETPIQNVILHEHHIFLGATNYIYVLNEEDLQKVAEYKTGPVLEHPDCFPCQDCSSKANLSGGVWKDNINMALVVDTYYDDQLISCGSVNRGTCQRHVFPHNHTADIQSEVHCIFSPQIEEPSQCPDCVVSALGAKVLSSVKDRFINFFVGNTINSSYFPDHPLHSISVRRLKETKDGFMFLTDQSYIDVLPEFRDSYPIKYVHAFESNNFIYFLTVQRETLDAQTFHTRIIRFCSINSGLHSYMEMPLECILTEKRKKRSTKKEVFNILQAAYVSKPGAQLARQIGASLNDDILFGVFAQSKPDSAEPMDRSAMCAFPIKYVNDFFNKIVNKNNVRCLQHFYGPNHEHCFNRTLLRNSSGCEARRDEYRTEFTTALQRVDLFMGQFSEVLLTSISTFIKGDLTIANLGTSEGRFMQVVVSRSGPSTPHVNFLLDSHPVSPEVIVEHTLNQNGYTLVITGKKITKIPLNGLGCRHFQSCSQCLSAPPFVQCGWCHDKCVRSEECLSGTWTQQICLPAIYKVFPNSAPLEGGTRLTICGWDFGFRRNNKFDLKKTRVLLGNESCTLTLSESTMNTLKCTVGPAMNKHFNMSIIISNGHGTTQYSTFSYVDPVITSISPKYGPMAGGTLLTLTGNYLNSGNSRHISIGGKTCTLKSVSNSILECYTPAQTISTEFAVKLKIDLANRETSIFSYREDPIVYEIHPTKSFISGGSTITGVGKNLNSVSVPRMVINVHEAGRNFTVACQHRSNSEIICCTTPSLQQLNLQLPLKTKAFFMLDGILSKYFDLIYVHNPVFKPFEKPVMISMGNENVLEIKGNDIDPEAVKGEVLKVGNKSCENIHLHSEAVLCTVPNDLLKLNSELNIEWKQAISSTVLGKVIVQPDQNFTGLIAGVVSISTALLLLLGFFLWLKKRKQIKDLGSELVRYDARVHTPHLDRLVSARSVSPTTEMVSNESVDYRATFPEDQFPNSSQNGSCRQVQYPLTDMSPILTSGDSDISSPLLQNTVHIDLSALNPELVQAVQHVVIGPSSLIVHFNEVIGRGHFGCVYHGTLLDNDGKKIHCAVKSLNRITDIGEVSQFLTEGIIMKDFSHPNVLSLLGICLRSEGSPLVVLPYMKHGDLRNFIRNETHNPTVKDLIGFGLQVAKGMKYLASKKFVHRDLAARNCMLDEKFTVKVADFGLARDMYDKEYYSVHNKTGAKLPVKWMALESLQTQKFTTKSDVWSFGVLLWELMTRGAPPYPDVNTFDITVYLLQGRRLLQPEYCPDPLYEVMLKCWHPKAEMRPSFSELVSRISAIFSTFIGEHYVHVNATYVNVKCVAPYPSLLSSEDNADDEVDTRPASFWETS

Human cMET = biological target: T3, Human cMET; assay: ELISA, plate coated with 100 ng/well human cMET recombinant protein, HRP anti-human Fc, OD450
T3 construct: also called human cMET recombinant protein
T3 chain: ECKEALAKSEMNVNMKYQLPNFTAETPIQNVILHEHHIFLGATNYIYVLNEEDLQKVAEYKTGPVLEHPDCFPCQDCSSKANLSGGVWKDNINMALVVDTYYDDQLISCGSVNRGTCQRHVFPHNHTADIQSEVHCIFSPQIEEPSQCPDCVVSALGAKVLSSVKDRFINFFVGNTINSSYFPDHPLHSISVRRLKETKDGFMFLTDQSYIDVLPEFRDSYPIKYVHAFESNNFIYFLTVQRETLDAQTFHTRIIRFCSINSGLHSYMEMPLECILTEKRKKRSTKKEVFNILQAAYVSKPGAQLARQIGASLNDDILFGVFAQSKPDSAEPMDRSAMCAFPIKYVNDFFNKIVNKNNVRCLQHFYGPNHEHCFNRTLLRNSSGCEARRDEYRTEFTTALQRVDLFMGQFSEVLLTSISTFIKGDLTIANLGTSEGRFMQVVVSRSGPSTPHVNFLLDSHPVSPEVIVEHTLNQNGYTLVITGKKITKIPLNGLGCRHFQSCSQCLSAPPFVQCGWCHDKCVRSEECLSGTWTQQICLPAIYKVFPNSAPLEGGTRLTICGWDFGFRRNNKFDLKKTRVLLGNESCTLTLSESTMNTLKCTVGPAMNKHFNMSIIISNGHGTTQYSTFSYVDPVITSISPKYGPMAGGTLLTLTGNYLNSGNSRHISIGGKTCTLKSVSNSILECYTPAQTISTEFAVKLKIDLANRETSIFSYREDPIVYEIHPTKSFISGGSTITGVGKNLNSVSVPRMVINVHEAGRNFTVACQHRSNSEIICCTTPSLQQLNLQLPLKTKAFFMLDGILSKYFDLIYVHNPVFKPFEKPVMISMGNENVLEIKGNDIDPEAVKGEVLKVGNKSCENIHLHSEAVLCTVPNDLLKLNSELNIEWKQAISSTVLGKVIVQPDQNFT

[4] = biological target: T2, EGFR on EGFR and cMET co-expressed …; assay: flow cytometry, SW620 cells (named among the EGFR and cMET co-expressing lines; both arms contribute)
[5] = biological target: T1, cMET on EGFR and cMET co-expressed …; assay: as above
[6] = biological target: T2, EGFR on EGFR and cMET co-expressed …; assay: flow cytometry, HCC-827 cells (co-express EGFR and cMET; both arms contribute)
[7] = biological target: T1, cMET on EGFR and cMET co-expressed …; assay: as above
human cMET-Fc = biological target: T4, human cMET-Fc (human, UniProt P08581 25-932); assay: blocking ELISA: coated human cMET-Fc, antibody titrated, then human HGF-His (blocked ligand), anti-His-HRP
T4 construct: not shown: Fc part, not described

[8] = biological target: T2, EGFR on EGFR and cMET co-expressed …; assay: flow cytometry, MKN-45 cells (co-express EGFR and cMET; both arms contribute)
[9] = biological target: T1, cMET on EGFR and cMET co-expressed …; assay: as above
Target sequence in this assay (P08581 25-1390 limits assumed): as the sequence (P08581 25-1390 limits assumed) above

[10] = biological target: T2, EGFR on EGFR and cMET co-expressed …; assay: flow cytometry on SNU-5 cells (co-express EGFR and cMET), PE anti-human Fc; signal of the whole bispecific, not resolved by arm
[11] = biological target: T1, cMET on EGFR and cMET co-expressed …; assay: as above
Target sequence in this assay (P08581 25-1390 limits assumed): as the sequence (P08581 25-1390 limits assumed) above

human EGFR-Fc = biological target: T5, human EGFR-Fc (human, UniProt P00533 25-645); assay: blocking ELISA: coated human EGFR-Fc, antibody titrated, then EGF-His (blocked ligand), anti-His-HRP
T5 construct: not shown: Fc part, not described

[12] = biological target: T2, EGFR on EGFR and cMET co-expressed …; assay: flow cytometry on NCI-H292 cells (co-express EGFR and cMET), PE anti-human Fc; signal of the whole bispecific, not resolved by arm
[13] = biological target: T1, cMET on EGFR and cMET co-expressed …; assay: as above
Target sequence in this assay (P08581 25-1390 limits assumed): as the sequence (P08581 25-1390 limits assumed) above

B1: Amivantamab (bispecific antibody, human IgG1, kappa)
heavy 1: not shown
light 1: not shown
heavy 2: not shown
light 2: DIQMTQSPSSVSASVGDRVTITCRASQGISNWLAWFQHKPGKAPKLLIYAASSLLSGVPSRFSGSGSGTDFTLTISSLQPEDFATYYCQQANSFPITFGQGTRLEIKRTVAAPSVFIFPPSDEQLKSGTASVVCLLNNFYPREAKVQWKVDNALQSGNSQESVTEQDSKDSTYSLSSTLTLSKADYEKHKVYACEVTHQGLSSPVTKSFNRGEC
notes: Bispecific positive control
[1]
  EC50 (read off the curve): ~3 nM
[2]
  EC50 (read off the curve): ~4 nM
[3]
  EC50 (read off the curve): ~4 nM
Human cMET
  EC50 (read off the curve): ~0.1 nM
[4]
  EC50 (read off the curve): ~0.2 nM
[5]
  EC50 (read off the curve): ~0.2 nM
[6]
  EC50 (read off the curve): ~3 nM
[7]
  EC50 (read off the curve): ~3 nM
Human cMET-Fc
  IC50 (read off the curve): ~0.8 nM
[8]
  EC50 (read off the curve): ~0.5 nM
[9]
  EC50 (read off the curve): ~0.5 nM
[10]
  EC50 (read off the curve): ~3 nM
[11]
  EC50 (read off the curve): ~3 nM
Human EGFR-Fc
  IC50 (read off the curve): ~0.2 nM
[12]
  EC50 (read off the curve): ~3 nM
[13]
  EC50 (read off the curve): ~3 nM
